Laboratory results from the supplement of paper PMC9170038.

Tested on: K4 kissing-loop RNA reporter
Test: apparent KD of K4 kissing-loop reporter; higher = weaker reporter binding
Details: Eterna round: R107; input ligand: FMN 200 uM
Description: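 RNA-MaP round R107: designed RNA switches with theophylline, tryptophan, arginine or FMN aptamers are transcribed on-chip within common flanks. They are titrated with a labelled K4 kissing-loop RNA reporter in RNA-MaP buffer (100 mM Tris pH 7.5, 80 mM KCl, 4 mM MgCl2), without ligand or with the indicated ligand. Median apparent KD per design.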
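Note: bound reporter read as fluorescence of individual clusters on recovered sequencing chips by microscopy, with normalized cluster intensities fitted with a binding model.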

Sequence | apparent KD of K4 kissing-loop reporter [nM]
CGCAAGCAGCCAGUGAUGUUGGCCGCCUUGCGAGGACCGGUACGGCCGCCACUCGAAGGCGGCUACUGGUAAUCCGUCUAACGGA [Lareus] | 84.6
AAACGUUGGUCGGAUACCAGCUUGAUCGGAAAACGAUCUGCUGGAGUGAUGUUCCAAUAAAGCCCUUGGCAGCCGACCGACGAAA [MAT - Same State Theophlline B - Mod of Eli - D15] | 662
GCCUACGAUGCAGGAUAUAGCUCGCGAGUGAUGUUCGCAGCUGUAUGGUAGUAAACUUCCACGUGUCUAGAAGGGCAUCGUAGGC | 111
AAAUUCUUUUUUUUAUUUAACUUUUCAGAAGGAGCGUGGUAGUACACAGGUAGGUCGCUGAAUUUUGGGCUAGUGAUGUUAGUUA [whbob_SS_Arginine_A_sa113] | 221
UCCGUUGCGGCGGCCGCCACUGACUUAUUGAUUAGGUUGCCAGUGAUGUUGGCCACCGGUCAAUACAGGACCGGGCCAUAGCGGG [Retive] | 160
GUCCCAGUGAUGUUGGUAGGCGAGCGGGAUACCAGCCAAGACUCAGGCCCUUGGCAGCCCACAUAUCCCACGUAGGGAUUAGCUC [Same State - Theophylline A (Freestyle 19)] | 212
AAUUCCUGUUAUGAUACCAGAAAUCACAGCAACCUGCCUACCUAGUGAUGUUAGGAGAAUUUCCCUUGGCAGCAUCGACUGAAGG [theeternabot_sameState_KL_Theo_B_38] | 147
UGACUGGACUGAAGGAGCGAGCGAGACAAAGUCUCGAAAAUUCAGUGAUGUUGAAAUAUAACUCAGGUAGGUCGCAGUCUAGUCU [ArgBS 4 #SwitchBubble #StaticStem] | 328
AAUAUACAGGGAAGGAGCGCCGUCCAGUGAUGUUGGAGUUAAAUACCAGUGAUGUUGGUUAGGCAGGUAGGUCGCCCUAAAGUAU [Exclusion Arginine B Gf 2] | 125
CGUGAAGACCAGAGGUGAUGUAUAGUAUCGCGAGGACCGGUACGGCCGCCACUCGUGAAGAGAAAGGAGUGAUGUUCCGUAAUGG [C12] | 246
AAACGUCGGAAGUGAUGUUGAUGACGUAGUAAGGAUAUUGGACGCGCAAGAAGGUACUGGCAAACUAAGGACAUCCUGGAUAUUC [theeternabot_exclusion_KL_FMN_A_47] | 330
GCACGUACCCGAAGGAGCGUGCAAGAAUCGUAGUGAUGUUACGGAGAGUGUCACGCCGUCGCACAGGUAGGUCGCGGGUACGUGC | 78.3
UAGACCUACUCAGGAUAUCCGCAGUGAUGUUGCGGUUGGCCUGAGCGACAUGAAAAUCUUACUAAAGGAGAAGGGAGAGGGUUAC [Ratiteus] | 123
UAUAUAUGAUGUGAUACCAGUGAAGAGCCAGUGAUGUUGGUAGAACUGGUAUAUAAAUAACACCCUUGGCAGCACAAUCACGUAU [whbob_Ex_Theo_B_sa97] | 160
UUCAGGUGUUCGGCCGCCACUCCAGUGAUGUUGGAGUGGCUUCACAAGGGCCAGGACAAUGUAGGGAGGACCGGGAAUAUCGCAG [Atvebeance] | 143
UGGAGUUGACGAAAAGUCAACUCCUGAGAAGGAGCGGACGAAAGUCCAGGUAGGUCGCUCACUAGCAGUGAUGUUGCUACAUAAA [#OpenEnded 2] | 202

Sequence | apparent KD of K4 kissing-loop reporter [nM]
CACUUACGUAGUGAUGUUACGAUCUCUGAUACCAGACAACUCUAAGUCCCUUGGCAGCAGUCAUUUUGCUUAUAAUUUACUCAAA [JR_ExcTheophyA_Sub015] | 657
GGAUUGCCAGUGAUGUUGGCAUAAACUGAAGGAGCGCGUGAAAACGCAGGUAGGUCGCAGAACCUUGCCAACUGAUCGAAAGAUC [Ex Arginine A K4 29] | 123
GCGCGUCAUGUCAGCGGUGCCUAUGUCGAUACCAGCGCCGCAAGGCGCCCUUGGCAGCGACGCGCUGGAGUGAUGUUCCAGCGUG [#2 Exclusion - Theophylline A Attempt #11 (HarryS)] | 148
UGUAUCAUCUAAGGAUAUAUCAUGUGAUGCACCGAGUAUCGCAUCAAUUCUGAGUGAUGUUCAGGUAUAGAAGGUAGAUGAUGCA [FMN B SS t2] | 207
AAACAUCACUGGGAGUGAUGUUCUCAGUGACGAGGACCGGUACGGCCGCCACUCGCGAGAGAUCUAGUCUAGUCUUGACUGCAUU [Excl Tryptophan A V13] | 282
AUUUUUUUGUCAGGAUAUUAGUAUGCAUUUAGUUUGUUAGUGAUGUUGAUAUUUUGUUUAUGUAUUUAAGAAGGGAUUUAGCGGU [iiikmullin] | 384
AUCACAGUGAUGUUGUGAUAUGGUACAGAUACCAGACUAGUGCUAGUCCCUUGGCAGCUGUACUCAGCAGCACCACUAGCACUCG [Theo A Ex t6b] | 147
CGAGUGAUGUUCGUUCGUUUAUUUCUUUGACAGGAUAUGCGGAAACGCAGAAGGGUCACCUUUGAGUUAAAGGAAUUUACGUUAU [Ex FMN A 26] | 572
UUAAUAUUGUCGGCCGCCACUGUUUAGUAUUUUGUAUAAUCUAUUUCAAAGUGAUGUUUUGAUUCCAGGACCGGGACAUUUGAUA [JR_Nu_ExcTryptoB_Sub031] | 597
UGAUACCAGACUGAUACCAGCUAGUGAUGUUAGCUGAAAUCAGGGUCAAAGACCCUGUCUGGCCCUUGGCAGCAGUCUGGUAUCU [TheoBX 18 #SwitchBubble #StaticStem] | 83.2
GCGCGGGAGUGAUGUUCCAAGUGGUGUUAACGAGGACCGGUACGGCCGCCACUCGUUACGGCCGGGCCGUAGGAUACACUGGCGC [Same State - Tryptophan A (Freestyle 16)] | 168
GCCUAGCAGGGAAGGAGCGCCAUAUAAUUAAAAGGUAAUUAAUGAGUGAUGUUCAAAUAAUGGCAGGUAGGUCGCCCUGCUAGGC [KL-SSArg B10] | 316
AGACCACAAAGUGGUCAGUGUUCGCUGCAGCGAGGACCGGUACGGCCGCCACUCGCGAGUGAUGUUCGCGAGCGCAGCGAACACA [Omei KL Tryp A Exc A v5] | 95.9
GCGAACAUUCGCAGUGAUGUUGCGACGGAAGGAGCGCGUGAAAACGCAGGUAGGUCGCCGACAUACUUAAUUUUACAGUGUUCGC [Arginine A K4 29] | 268
UUGUGCAGCAAACGAGUGAUGUUCGACGAUACCAGCCUCGAUAGAGGCCCUUGGCAGCGUAAUAAUCACAGCCAAGGGCUGCACU [#SwitchBubble 4] | 651
GUGCAAAGCACCGGCACGAGCAGCCUAAAGGAGGAUAUGACGAAAGUCAGAAGGCCUAGUGAUGUUAGGCCUUGCUUGAGUCGAA [Omei KL FMN A Exc B v1] | 131

Same assay, conditions: Eterna round: R107; input ligand: arginine 13.2 mM

Sequence | apparent KD of K4 kissing-loop reporter [nM]
CGCAAGCAGCCAGUGAUGUUGGCCGCCUUGCGAGGACCGGUACGGCCGCCACUCGAAGGCGGCUACUGGUAAUCCGUCUAACGGA [Lareus] | 80.9
AAACGUUGGUCGGAUACCAGCUUGAUCGGAAAACGAUCUGCUGGAGUGAUGUUCCAAUAAAGCCCUUGGCAGCCGACCGACGAAA [MAT - Same State Theophlline B - Mod of Eli - D15] | 659
GCCUACGAUGCAGGAUAUAGCUCGCGAGUGAUGUUCGCAGCUGUAUGGUAGUAAACUUCCACGUGUCUAGAAGGGCAUCGUAGGC | 79.7
AAAUUCUUUUUUUUAUUUAACUUUUCAGAAGGAGCGUGGUAGUACACAGGUAGGUCGCUGAAUUUUGGGCUAGUGAUGUUAGUUA [whbob_SS_Arginine_A_sa113] | 217
UCCGUUGCGGCGGCCGCCACUGACUUAUUGAUUAGGUUGCCAGUGAUGUUGGCCACCGGUCAAUACAGGACCGGGCCAUAGCGGG [Retive] | 208
GUCCCAGUGAUGUUGGUAGGCGAGCGGGAUACCAGCCAAGACUCAGGCCCUUGGCAGCCCACAUAUCCCACGUAGGGAUUAGCUC [Same State - Theophylline A (Freestyle 19)] | 198
AAUUCCUGUUAUGAUACCAGAAAUCACAGCAACCUGCCUACCUAGUGAUGUUAGGAGAAUUUCCCUUGGCAGCAUCGACUGAAGG [theeternabot_sameState_KL_Theo_B_38] | 173
UGACUGGACUGAAGGAGCGAGCGAGACAAAGUCUCGAAAAUUCAGUGAUGUUGAAAUAUAACUCAGGUAGGUCGCAGUCUAGUCU [ArgBS 4 #SwitchBubble #StaticStem] | 303
